Columns and labels:
Assay in all cases: EMSA
[1] = target: SRSF1 E60D (human, UniProt Q07955 1-248, E60D)
[2] = target: SRSF1 wild type (human, UniProt Q07955 1-248)
[3] = target: SRSF1 P89S (human, UniProt Q07955 1-248, P89S)
SRSF1 P89S, sequence (Q07955 whole entry P89S): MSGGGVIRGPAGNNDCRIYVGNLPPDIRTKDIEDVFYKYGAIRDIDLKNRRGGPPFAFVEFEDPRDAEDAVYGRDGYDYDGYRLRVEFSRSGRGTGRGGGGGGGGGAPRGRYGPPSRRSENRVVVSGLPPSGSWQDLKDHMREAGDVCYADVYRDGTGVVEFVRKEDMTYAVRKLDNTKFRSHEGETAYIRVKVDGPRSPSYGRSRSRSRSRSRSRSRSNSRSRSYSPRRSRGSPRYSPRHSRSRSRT

SRSF1 E60D, sequence (Q07955 whole entry E60D): as the sequence (Q07955 whole entry P89S) above, with E60D, S89P counted along it
SRSF1 wild type, sequence (Q07955 whole entry): as the sequence (Q07955 whole entry P89S) above, with S89P counted along it

B1: ssRNA (64mer) (ssRNA)
RNA: UUUCCCAGCACCAGAUUCAGCAUACGUUACCGAUCGUACGUUCGAUGCUGGCUACUGCUAGCUU
- binding result [1]: binds
- binding result [2]: binds
- binding result [3]: no binding

Reference: PMC10865995
